# Test results as given in the nanobody polyreactivity screen of Harvey et al. (2022).
# Assay: yeast display, Sf9 membrane polyspecificity reagent, FACS + sequencing; frameworks hold sequencing errors
# Method in brief: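 Polyreactivity labels are assigned by the sorting gate from which each nanobody was recovered. The gates were low and high (top ~1%), set on anti-HA fluorescence for expression and streptavidin fluorescence for reagent binding. Before sorting, galactose-induced (36–48 hours) yeast display cells were stained for 1 hour at 4 °C with 10% biotinylated, detergent-solubilized Sf9 membrane reagent.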
row,Sequence,polyreactivity (PSR sort gate)
1,QVQLVESGGGLVQAGGSLRVSCAASGSTFWSNVMGWYRQAPGKERELDSAISYGGVTTSYADSVKGRFTISRDNAKNTVYLQMNSLKPEDTAVYYCATDYVGYYFYESDYWGQGTQVTVSS,low polyreactivity
2,QFQLVESGGGLVQAGGSLRLSCAASGFTIYLYTMGWYRQAPGKERELVATISWSGASTYYADSVKGRFTISRDNAKNTVYLQMNSLKPEDTAVYYCATRYRYRYWGQGTQVTVSS,high polyreactivity
3,QVQLVESGGGLVQAGGSLRLSCAASGSIFGDNAMGWYRQAPGKERELVASITWSGGSTFYADSVKGRFTISRDNAQITVYLQMNSLKPEDTAVYYCAADTAEYLYDMDYWGQGTQVTVSS,low polyreactivity
4,QVQLVESGGGLLQAGGSLRLSCAASGSILDGNAMGWNRQAPGKERELVAAISYSGGSTYYADSVKGRFTISRDNAKNTVYLQIYSLKPEDTAVYYCAAGSISTPGRGVDKPDAYVYWGQGTQVTVSS,low polyreactivity
5,QVQLVESGAGLVQAGGSLRISCAASGSTFDGNDIGWYRQAPGKERELVAAITIGGGSTYYADSVKGRFTISRDNAKNTVYLQMNSLKPEDTAVYYCAKDDHTGVHTYPGDYWGQGTQVTVSS,low polyreactivity
6,QVQHVESGGGLVQAGGSLRLSCAASVSTFEYYAIGRYRQAPGKERELVASISSGGSTYYADSVKGRFTISRDNAKNTVYLQMNSLKPEDTAVYYCAADSYYGYEYWGQGTQVTVSS,low polyreactivity
7,QVQLVESGGGLVQAGGSLRLSCAASGSIFPINAMGWSRQAPGKERELVAAITVSDGRTYYADSVKGRFTISRDNAKNTVYLQMNSLKPEDTAVYYCAAVTPFRVLYDYWGQGTQVTVSS,low polyreactivity
8,QVQLVESGVRLLQAGGSLRLSCAASGRIFGVYAMGWYITAPGKERELVAAIRGGGSTKYADSVKGRFTISRDNAKNTVYLQMKSLKPEDTAVYYFAARKLYYKHDYWGQGTQVTVSS,low polyreactivity
9,QVQLVESGGGLVQAGGSLRLSCAASGRIFYHNAMGWYRQAPGKEREFVAAINWRGGNTYYADSVKGRFTISRDNAKITVYLQMNSLKPEDTAVYYCNALYKRYTDYDYWGQGTQVTVSS,high polyreactivity
10,QVQLVESGGGLVQAGGSLRLSCAASGLIFGTYAMGWYREARGIERELVAAITSGGRTYYADSVKGRFTISRDNAKNTVYLQLNSLKPEATAVYYCAAVLSQWGAVFLYVLSTGLDYWGQGTQVTVSS,low polyreactivity
11,QVQLVESGGGLVQAGGSLRLSCAASGRTFGAYSMGWYRQAPGKERELVASISRSGGSTYYADSVKGRFTISRDNAKNTVYLQMNSLKPEETAVYYCAARVYRYGAMDYWGQGTQVTVSS,high polyreactivity
12,QVQLVESGGGLVQAGGSLRLSCAASGSTLGVNAMGWYRQAPGKEREFVAAITGRGGNTYYADSVKGRFTISRDNAKNTVYLQMNSLKPEDTAVYYCAARVKYTRYQSILDYYYWGQGTQVTVSS,high polyreactivity
13,QVQLVESGGGLVQAGASLRLSCAASGRTIYANAMGWYIQAPGKERELVAAISRRGGNTYYADSVKGRFTISRDNAKNTVYLQMNRLKPEDTAVYYCYAYGGGDYWGQGTQVTVSS,high polyreactivity
14,QVQLVESGGGLVQAGGSLRLSCAASGGTFFWYGMGWYRQAPGKERELVAAITSGGSTYYADSVKGRFTISRDNAKNTVYLQMNSLKPEDTAVYYCATENRFRGWYPTRSSLPYEYWGQGTQVTVSS,low polyreactivity
15,QVQLVESGGGLVQAGGSLRLSCAASGTIFVGYAMGWYRQAPGKERELVAAISWSGGRTYYADSVKGRFTISRDNAKNTVYLQMNSLKPEDTAVYYCAAPRYGGWRSYQKYDYWGQGTQVTVSS,high polyreactivity
16,QVQLVESGGGLVQAGGRLRLSCAASGRTFDRYAMGWYRQAPGKERELVAAITWSGGRTYYADSVKGRFTISRDNAKKTVYLQMNSLKPEDTAVYYCAADNSYRGYHSPYDYWGQGTQVTVSS,low polyreactivity
17,QVKLVESGGGLVQAGGSLRLSCAASGRTFYINAMGWYRQAPGKERELVAAISRVGSTNYADSVKGRFTISRDNAKNTVYLQMNSLKPEDTEVYYCAARSRGGRRYYYWGQGSQVTVSS,high polyreactivity
18,QVQHVESGGGLVQAGGSLRLSCPASGSTLYGYAMGWYRQEPGKESELVAAINTGASTNYADSVKGRFTISRDNAKNTVYLQMNSLKPEDTAVYYCAASYSLTFWDKDDYWGQGTQVTVSS,low polyreactivity
19,QVQLVESGGGLVQAGGSLRLSCAASGSIFHANAMGWYRQAPGKERELVAVISQGGGSTYYADSVKGRFTISRDNAKNTVYLQMNSLKPEDTAFYYCAAYYYYSAYGDDYWGQGTQVTVSS,high polyreactivity
20,QVQLVESVGGLVQAGGSLRLSCAASGRIFGRYAMGWYRQAPGKESELVAAISTNGGRTYYADSVKGRFTISRDNAKNTVYLQRKSLKPEDNADYYCARAYRGPGYVIRYDYWGQGTQVTVSS,high polyreactivity
21,QVQLVESGGGLVQAGGSLRLSCAASGSTFKAYAMGWYRQAPGKEWELVAAISASGGTTYYADSVKGRFTISRDNAKNTVYLQLKSLKPEDTAVYYCNARHPYTGGRRYPYTRYGYWGQGTQVTVSS,high polyreactivity
22,QVQLVESGGGLVQAGGSLRLSCAASGLIFNLYAMGWYRQAPGKEREFVATITGIGGSTYYADSVKGRFTISRDNAKNTVYLQMNSLKPEDTAVYYCAADAWFLPYNDWGQGTQVTVSS,low polyreactivity

row,Sequence,polyreactivity (PSR sort gate)
1,QVQLVESGAGLVHAGGSLRLSCAAYGRTFLAYAKGWYRQAHGKERELVAAISKSGGRTYYADSVKGRFTISRDYAKHTVYLQMNSLKPEDTAVYYCAADKQAYVTDDYWGQGTQVTVSS,high polyreactivity
2,QDQLVESGGGLVQAGGSLRLSCAASGFTFAGYAMGWYRQAPGKERELVAAITYSGGRTYYADSVKGRFTISRDNAKNTVYLQMNSLKPEDTAVYYCAARNYRYPGRYVYWGQGTQVTVSS,high polyreactivity
3,QGQLVESGGGLVQAGGSLRLSCAASGFTFPGYAMGWYRQAPGNVRELVAAITGSGGRTYYADSVKGRFTISRDNAKNTVYLQMNSLKPEDTAVYYCLARSSYNWYDYWGQGTQVTVSS,high polyreactivity
4,QVQLVESGGGLVQAGGSLRLSCAASGLTISWYAMGWYRQAPGKEWELVAAISTRGGRTYYADSVKGRFTISRDNAKNTVYLQMNSRKQEDNAVYYCAAGVYYRYLWLFDYWGQGTQVTVSS,high polyreactivity
5,QVQLVESGGGVVQAGGSLRLSCAASGRTFQFNAMGWYRQAPGKERELVATIDDPSGGTYYADSVKGRFTISRDNAKNTVYLQMNSLKPEDTAVYYCAADRWDSRYETYRYDYWGQGTQVTVSS,low polyreactivity
6,QVQLVESGGGLVQAGGSLRLSCAASGSTFWEYVMGWYRQAPGKERELVAAITTNDDSTYYADSVKGRFTISRDNAKNTVYLQMNSLKPEDTAVYYFNADQITGQFDYWGQGTQVTVSS,low polyreactivity
7,QVQLVESGGCLVQAGGSLRLSCAASGSTLRYYAMGWYRQAPGKERELDARIRSNGGSTYYADSVKGRFTISRDNANNTVYLQMNSLKPEETAVYYCAARTYRGQYYTGFGFGYWGQGSQVTVSS,high polyreactivity
8,QVQLVESGGGLVQAGGSLRLSCAASGSIFYVYAMGWYRQAPGKERELVAAISFSGDTTYYADSVKGRFTISRDNAKNTVYLQMNSLKQEDTAVYYCAAEYYYTWVYQYWEMDYWGQGTQVTVSS,low polyreactivity
9,QVQLVESGGGLVQAGGSLRLSCAASGSIFGYNAMGWYRQARGKERELVAAITSSGGSTYYADSVKGRFTISRDNSKNTVYLQMKSLKPEDTAVYYCNARDWYIVWYDYWGQGTQVTVSS,low polyreactivity
10,QVQLVESGGGLVQAGGSLRLSCAASGSTFRRNAMGWYRQAPGKERELVAAISGSGGSTYYADSVKGRFTISRDNAKNTVYLQMNSLKPEDTAVYYCAARVVKNYKSDSWGQGTQVTVSS,high polyreactivity
11,QVQLVESGGGLVQAGGSLRLSCAASGIIFGKNAMGWYRQAPGKERELVAAISRRGGGTYYADSVKGRFTISRDNAKNTVYLQMNSLKPEDTAVYYCAVKVGYVRLLYHYYYWGQGTQVTVSS,high polyreactivity
12,QVHLVDSCGALVQAGGSLSIRCAASGLTIYRYAKGWNRQEPRKETEVVAAISSADRTYYADSVKGRFTISRDNAKNTVYLQMNSLKPEDTAVYYCAARANYFGWTKSYYYWGQGTQVTVSS,high polyreactivity
13,QVQLVESGGGLVQAGGSLRLSCAASGFTFRVYAMGWYRQAPGKERELVAAITNSGGNTYYADSVKGRFTISRDNAKNTVYLQMNSLKPEDTAVYYCNRRYRYRFGYWGQGTQVTVSS,high polyreactivity
14,QVQLVESGGGLVQAGGSLRLSCAASGYIFKIKAMGWYRQAPGKERELVATITWSTGTTYYADSVKGRFTISRDNAKNTVYLQMNSLKPEDTAVYYCNATAIIRIGVLPGDYWGQGTQVTVSS,low polyreactivity
15,QVQLVESGGGLVQARGSLRLSCAASGSIFPGYAMRWYREAPGKARELVAAISTSGGSTYADSVTGRFTISRDNAKNTGYLQMNSLKPEDTAVYYCAATYTYTSPVYYSLDGPWPYDYWGQGSQVTVSS,low polyreactivity
16,QVQLVESGGGLVQAGGSLRLSCAASGSTFYPNAMGWYRQAPGKERELVAAISRGTRTKYADSVKGRFTISRDNAKNTVYLQMNSLKPEDTAVYYCAADTGTGLDWGQGTQVTVSS,high polyreactivity
17,QVQLVESGGGLVQAGGSLRLSCAASGLTFYYYAMGWYRQAPGIEREFVAAINWDGGSTYYADSVKGRFTISRDKAKNTVYLQMNSLKPEDTAVYYCATGDTDYDYWGQGTQVTVSS,low polyreactivity
18,QVQLVESGGGLVQAGGSLRLSCAASGFTSVDNAMGWYRQAPGNERELVAAIDTSGARTYYADSVKGRFTISRDNAKHTVYLQMNSLKPEDTAVYYCATEYVYDDRLYSTYYYWGQGTQVTVSS,high polyreactivity
19,QVQLVESGGGLVQAGGSLRLSCAASGSTFPEYAMGWYRKAPGKERELVAAISKSGGRTYYADSVKGRFTISRDNAKNTVYLQMNSLNPEDTAVYYCARDSYPHGRARFDYWGQGTQVTVSS,high polyreactivity
20,QVQLVESGGGLVQAGGSLRLSCAASGRTFLPYAMGWYRQAPGKERELVADINWGGGSTYYADSVKGRFTISRDNATNTVYLQMNSLKQEDTALYYCATDDGYQYWYYQWYYWGQGTQVTVSS,low polyreactivity
21,QVQLVESGGGLVQAGGSLRLSCAASGSTFQYNAMGWYRQAPGKERELVAAISTGTSTYYADSVKGRFTISRDNAKNTVYLQMNSLKPEDTAVYYCAAEYWGDYTEYNYWGQGTQVTVSS,high polyreactivity
